This assay concerns PARP-1. In words: FACS PARP-1 activity in innate and adaptive immune cells treated with HSP60 or 15-HC. In kind it is cell-based, human. To be noted: CD4+ T cells, CD8+ T cells, B cells of healthy controls; HSP60 1, 5, 10 ng/ml; 15-HC 1, 5, 10 ug/ml. The source says: FIGS. 17A-C are bar graphs showing that 15-HC, but not HSP60, activates PARP-1 in cells of the innate immune system. Mean PARP-1 activity as determined by FACS in classical monocytes (17A), inflammatory monocytes (17B) and dendritic cells (17C) of healthy controls (HC) treated with activated with HSP60, 15-HC or left untreated. The data are shown as mean fluorescence intensity (MFI)±SD of 5 samples/group.
FIGS. 18A-C are bar graphs showing that both 15-HC and HSP60 activate PARP-1 in cells of the adaptive immune system. Mean PARP-1 activity as determined by FACS in CD4+ T cells (18A), CD8+ T cells (18B) and B cells (18C) of healthy controls (HC) treated with activated with HSP60, 15-HC or left untreated. The data are shown as mean fluorescence intensity (MFI)±SD of 5 samples/group.
A new FACS-based method was developed to detect PARP-1 activation based on the intracellular detection of the PARP-1 product PAR with specific antibodies. Briefly, the cells were incubated with antibodies to CD16/32 to block unspecific antibody binding, and then stained for surface markers. […] The samples were then analyzed by FACS.
To investigate whether the increased activity of the TLR2/PARP-1 axis in SPMS patients resulted from increased levels of TLR2 ligands, the levels of 15-HC and HSP60 were measured in serum samples from healthy controls, RRMS and SPMS patients. […]

B1: HSP60: TLR2 agonist HSP60 (protein, UniProt P10809 27-573, looked up)
60 kDa heat shock protein, …: AKDVKFGADARALMLQGVDLLADAVAVTMGPKGRTVIIEQSWGSPKVTKDGVTVAKSIDLKDKYKNIGAKLVQDVANNTNEEAGDGTTTATVLARSIAKEGFEKISKGANPVEIRRGVMLAVDAVIAELKKQSKPVTTPEEIAQVATISANGDKEIGNIISDAMKKVGRKGVITVKDGKTLNDELEIIEGMKFDRGYISPYFINTSKGQKCEFQDAYVLLSEKKISSIQSIVPALEIANAHRKPLVIIAEDVDGEALSTLVLNRLKVGLQVVAVKAPGFGDNRKNQLKDMAIATGGAVFGEEGLTLNLEDVQPHDLGKVGEVIVTKDDAMLLKGKGDKAQIEKRIQEIIEQLDVTTSEYEKEKLNERLAKLSDGVAVLKVGGTSDVEVNEKKDRVTDALNATRAAVEEGIVLGGGCALLRCIPALDSLTPANEDQKIGIEIIKRTLKIPAMTIAKNAGVEGSLIVEKIMQSSSEVGYDAMAGDFVNMVEKGIIDPTKVVRTALLDAAGVASLLTTAEVVVTEIPKEEKDPGMGAMGGMGGGMGGGMF
As to B1, the “PARP-1 activation in cells of the adaptive immune system (FIG. 18)” value is “could activate”.
